B1: antibody M6 (antibody, V domains shown)
VH: QVKLEESGPELKKPGETVKISCKASGYTFTNYGMNWVKQAPGKGLKWMGWINTYTGEPTYADDFKGRFVFSLETSASTAYLQINNLKNEDMATYFCARKSTVVSRYFDVWGAGTTVTVSS
VL: DIVLTQTHKFMSTSVGDRVSITCKASQDVGDAVTWCQQKPGQPPKLLIYWASTRHTGVPDRFTGSGSGTDFTLTINNVQSEDLADYFCQQYRSYPLTFGAGTKLELKR
notes: mouse hybridoma monoclonal antibody; also called Mer-M6
B2: antibody M19 (antibody, V domains shown)
VH: EVQLEESGPDLKKPGETVKISCKASNYTFTDYSMHWVKQAPGKGLKWVGWINTDTGEPTYADDFKGRFAFSLETSASTAYLQINNLKNEDTATYFCARWFGAMDYWGQGTSVTVSS
VL: DIVITQSHKFMSTSVGDRVSITCKASQDVTNVVAWYQQKPGQSPKLLIYSASYRYTGVPDRFTGSGSGTDFTFTISSVQAEDLAVYYCQQYYRTPRTFGGGTKLEIKR
notes: mouse hybridoma monoclonal antibody; also called Mer-M19

Legend:
recombinant human MERTK [1] = target: T1, recombinant human MERTK (human, UniProt Q12866 26-499, limits assumed); assay: biolayer interferometry, M6 loaded on AMQ sensor, hMer as analyte, 1:1 model, local fit at 1.25 nM hMer
T1 construct: Analyte in solution in biolayer interferometry; also called hMer
T1 sequence: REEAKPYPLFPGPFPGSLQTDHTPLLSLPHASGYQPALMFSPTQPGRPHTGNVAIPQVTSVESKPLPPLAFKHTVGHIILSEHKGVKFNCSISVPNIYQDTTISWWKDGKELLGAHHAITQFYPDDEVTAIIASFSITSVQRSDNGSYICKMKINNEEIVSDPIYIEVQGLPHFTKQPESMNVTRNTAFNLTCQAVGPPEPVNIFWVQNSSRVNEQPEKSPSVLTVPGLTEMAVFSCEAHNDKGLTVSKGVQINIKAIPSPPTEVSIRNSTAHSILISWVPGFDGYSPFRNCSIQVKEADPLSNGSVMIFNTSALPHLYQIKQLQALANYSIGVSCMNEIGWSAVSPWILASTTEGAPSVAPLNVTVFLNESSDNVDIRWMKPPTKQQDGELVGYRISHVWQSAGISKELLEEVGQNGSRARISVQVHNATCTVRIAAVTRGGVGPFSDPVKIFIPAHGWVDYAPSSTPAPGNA
Procedure: (§1) FIG. 11: M6 binds to MERTK with high affinity. M6 binds to human MERTK with high affinity. A diagram showing antibody binding kinetics for M6 (Mer-M6) against human MERTK (hMer) using biolayer interferometry. Purified M6 was loaded on an AMQ sensor at a concentration of 1 microgram/mL to test binding against analytes in solution. All analytes were prepared at 5 nM with a 2-fold dilution series for a total of 7 concentrations. Kinetic fits were calculated using a 1:1 model, with Local fits for each concentration as well as an overall Global fit.

recombinant human MERTK [2] = target: T1, recombinant human MERTK; assay: biolayer interferometry, M19 loaded on AMQ sensor, hMer as analyte, 1:1 model, local fit at 5 nM hMer
Procedure: as §1, with “7: M19” for “11: M6 binds to MERTK with high affinity. M6”, “M19 (Mer-M19)” for “M6 (Mer-M6)”, “M19” for “M6”, “global” for “Global”

Row | Binder | Kd (recombinant human MERTK [1]) | koff (recombinant human MERTK [1]) | Kd (recombinant human MERTK [2]) | kon (recombinant human MERTK [2])
1 | B1 | 0.048 nM | 0.00015 s⁻¹ |  | 
2 | B2 |  |  | 0.248 nM | 3.83e+06 M⁻¹ s⁻¹
